# Measured values as given in publication doi:10.1101/2020.12.31.425005 (bioRxiv, 2020).
# B1: Haemophilus ducreyi I51M-L72M-YhcB cytosolic region, residues 31-128 (domain or fragment)
# chain: MKGNIQQQIQLKSELASAEAKMEEQKQQLERHFEQSANLLENMAEDYKKLYTHFAQNSEQLLPESNQVEFFKRLKNHANGDEDNQPRDYSDGSSGLLKS
# modifications: selenomethionine-labeled (Met-51, Met-72)
# Target: the molecule itself
# Test: crystal structure
protein,measurement,value
B1,stoichiometry N,4
